The values that follow come from US7528226B2, “TGFβ1-inhibitor peptides” (Rojecto de Biomedicina Cima S.L., priority 1998, dated 2009).

One data set concerns the target T1, TGFβ1 (Homo sapiens, UniProt P01137).
T1 construct: the mature TGFβ1 is released by another cut; purchased R&D Systems Europe Ltd., Abingdon, UK
The format is cell-based. The note with it: TGFβ1 200 pg/ml; for inhibitory activity of TGFβ1 (in words): peptide 200 μg/ml, MV-1-Lu cells; for Bioassay (% inhibition): inhibition of TGFβ1 activity, growth of MV-1-Lu cells, peptide concentration 200 μg/ml. On the procedure:
A line derived from mink pulmonary epithelium, MV-1-Lu, was used (CCL-64, American Type Cell Culture, Virginia, USA). The cells were grown in 162 cm^2 culture flasks (Costar Corporation, Cambridge, USA) in a stove at 37° C. and 5% CO2, until subconfluence was attained. A complete medium was used: RPMI 1640 with L-glutamine (GibcoBRL, Life Technologies Ltd., Paisley, Scotland) supplemented with 5% of foetal calf serum (FCS, Biological Industries, Kibbutz Beit Haemek, Israel), 10 mM HEPES (1M HEPES Buffer, Bio-Whittaker, Verviers, Belgium) and antibiotics (100 U/ml penicillin and 100 μ/ml streptomycin).
The MV-1-Lu cells grown as indicated above were removed from the bottom of the culture flasks using 5 ml of trypsin-EDTA (Biological Industries, Kibbutz Beit Haemek, Israel), resuspended in complete medium and centrifuged at 1500 rev/min for 8 minutes. After centrifugation the cells were resuspended in complete medium to a concentration of 50,000 cells/ml. For conducting the test, 10 ml of the cell suspension were taken and dispensed in 96-well, flat-bottom culture plates (Costar Corporation, Cambridge, USA), adding 100 μl/well, and were incubated overnight at 37° C. and 5% CO2, which permits adhesion of the cells to the bottom of the wells. […] The final concentration of FCS in the well was 2.5%. After 24 hours of incubation, 1 μCi of tritiated thymidine was added per well (25 Ci/mmol [methyl-^3H]-thymidine, Amersham Life Science, Buckinghamshire, UK) with incubation for a further 12 hours (Grubeck-Loebenstein B. et al. (1989) J. Clin. Invest. 83:764-770; Brennan F M et al. (1990) Clin. Exp. Immunol. 81:278-285).
At the end of the incubation periods the cells were removed from the bottom of the wells with trypsin-EDTA and were collected using a manual harvester (Titertek cell harvester, Skatron Instruments Inc., Sterling, USA) which ruptures the cells, collecting the DNA in nitrocellulose filters (Filter MAT 11731, Skatron Instruments Inc., Sterling, USA) where it is fixed. The filters were placed individually in 5 ml polypropylene tubes to which 4 ml of scintillation fluid was added (Biogreen-11, Reactivos Scharlau S. A., Barcelona, Spain). The activity of each tube was quantified for 90 seconds in a β LKB scintillation counter (Beta plate system, LKB, Uppsala, Sweden).
TGFβ1 is a cytokine that is able to inhibit the growth in vitro of the MV-1-Lu cell line (Grubeck-Loebenstein B. et al. (1989) J. Clin. Invest. 83:764-770; Brennan F M et al. (1990) Clin. Exp. Immunol. 81:278-285), therefore this line was used for testing the blocking effect of peptides on TGFβ1. After different combinations of media, cells and thymidine, we studied the effect of different concentrations of TGFβ1 on incorporation of [methyl-^3H]thymidine by MV-1-Lu cells in culture, for determining the most suitable conditions for the test. […]
(§1) The synthetic peptides that are potentially inhibitors of TGFβ1 activity, selected as indicated above in the section: selection of the peptides to be synthesized (both those derived from proteins that bind to TGFβ1 itself) were tested using the MV-1-Lu cell line. The selected peptides are soluble in buffered RPMI medium. The peptides were dissolved in buffered RPMI medium, free from foetal calf serum, and the following was used.
The peptides belonging to the sequence of the receptor, or complementary to the peaks of hydrophilicity of TGFβ1, were incubated for 30 minutes in the presence of this cytokine and were then combined with the cell culture. The peptides derived from the sequence of TGFβ1 were added to the cell culture prior to addition of TGFβ1, since they interact with the receptors of the cell surface. These incubations were effected in 100 μl of the same medium as was used for adding the cells. The active peptides permitted cell growth to a greater or lesser degree depending on its ability to inhibit TGFβ1.

Another data set has as its system TGFβ1 cell receptors. The arrangement: species or system human. The note with it: inhibition of binding of TGFβ1 to its cell receptors, MV-1-Lu cells; peptide concentration 420 μg/ml. The source says: An immunofluorescence kit was used for this (Fluorokine rh TGFβ-biotin, R&D Systems Europe Ltd., Abingdon, UK). This test is based on the capacity of biotinylated TGFβ1 to bind to the cell receptors, in a specific manner, and the subsequent interaction of the biotin with fluorescein-labelled avidin, so that the signal intensity will depend on the quantity of TGFβ1 bound to the cell receptors.
The MV-1-Lu cells grown in 162 cm^2 flasks were removed using solution 1 (described previously) and were resuspended in physiological saline for centrifugation at 500×g for 5 minutes. After centrifugation, the cells were resuspended again in physiological saline at a concentration of 4×10^6 cells/ml. 25 μl of the cell suspension was added to 12×75 mm borosilicate tubes, to which was added the peptide to be tested in 40 μl of RPMI 1640 medium, giving a final concentration of 0.42 μg/μl and 10 μl of biotinylated TGFβ1. […]
At the end of the incubation period, 10 μl of fluorescein-labelled avidin was added, incubating for 30 minutes at 4° C. in darkness, after which 2 ml of a washing solution (RDF1) was added, followed by centrifugation at 500×g for 6 minutes. […] This method permits measurement of the fluorescence emitted by each cell when a laser beam is incident upon it, by means of a computer program (Lisys™ II, Becton Dickinson Immunocytometry Systems, California, USA).
Once the fields had been delimited, the percentage of cells located in each of them was calculated. […]
Peptides derived from previous syntheses, both those that were synthesized from the sequence of TGFβ1 and those from the type III receptor, were used for measuring, by flow cytometry, their capacity to inhibit the binding of TGFβ1 to the cell receptors. In these tests the cells are incubated with the peptide before adding TGFβ1-biotin, which will be detected using avidin-FITC (Material and Methods). Then the fluorescence emitted by the avidin-FITC is measured: this will be directly proportional to the quantity of TGFβ1 bound to the cells and inversely proportional to the activity of the peptide.

The nature of data set [1]: Solubility of the peptides in the test medium. Format: physicochemical. The protocol:
as §1
The effect of the concentration of peptide P12 on inhibition of the activity of TGFβ1 was investigated.
The effect of the concentration of peptide P54 on inhibition of the activity of TGFβ1 was investigated.

No end group written: not given here.

T1 sequence (P01137 279-390): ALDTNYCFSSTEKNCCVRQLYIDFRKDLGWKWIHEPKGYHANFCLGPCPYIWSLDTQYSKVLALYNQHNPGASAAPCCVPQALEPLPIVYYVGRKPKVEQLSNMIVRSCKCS

In the case of “SNPYSAFQVDIIVDI [P106, SerAsnProTyrSerAlaPheGlnValAspIleIleValAspIle]”, the “inhibitory activity of TGFβ1 (in words)” value at TGFβ1 was “had also demonstrated activity”.

Regarding TSLDATMIWTMM [P54], in the data set with TGFβ1 (dose-response test), the “dependence of the inhibitory activity on the peptide concentration” value was “inhibit the activity of TGFβ1 in a manner that depends on the dose used”. The “inhibitory activity of nominal concentrations of peptide, before and after filtration” value with TGFβ1 (dose-response test, filtered vs unfiltered stock) is “no measurable inhibitory activity in the filtrate”. In addition, in the data set with TGFβ1, the “Bioassay (% inhibition)” value came to 97% and the “inhibitory activity of TGFβ1 (in words)” value is listed as “capable of inhibiting the activity of TGFβ1 almost completely”. Moreover, the “Cytometry (% inhibition)” value with TGFβ1 cell receptors is listed as 82.3%. The “solubility in the test medium” value in data set [1] is reported as “low solubility”.

Turning to “CysValAlaValTrpArgLysAsnAspGluAsnIleThrLeuGluThrValCys (CVAVWRKNDENITLETVC; Synthetic peptide from rat TGB beta 1 type III receptor, position 84-101) [P146]”, the “inhibitory activity of TGFβ1 (in words)” value in the data set with TGFβ1 is reported as “not found to be active”.

For the substance “LYNQHNPGASAAPCC (cysteine pairing not given here) [P18]”, the “Bioassay (% inhibition)” value with TGFβ1 is listed as 18.2%. In addition, in the data set on TGFβ1 cell receptors, the “Cytometry (% inhibition)” value is 6.5%.

Consider “HANFCLGPCPYIWSL (cysteine pairing not given here) [P11]”, for which, in the data set with TGFβ1, the “Bioassay (% inhibition)” value turned out to be 40%. The “Cytometry (% inhibition)” value in the data set with TGFβ1 cell receptors is reported as 86%.

Turning to “CDIHVLKQDGFSVLFTKCD (cysteine pairing not given here) [P149]”, the “inhibitory activity of TGFβ1 (in words)” value in the data set with TGFβ1 is “not found to be active”.
